# Measurements taken from paper PMC3846842.
# Several values for one entry are separate records, joined by “and”; a condition that tells them apart may be missing. Equal values may be shown once.
# How the values were obtained:
# [1] = target: BtcA (Bordetella pertussis); test: cross-linking; BtcA about 4 mg/ml in PBS with serially diluted EGS (from 3 mM), 30 min at RT, SDS-PAGE
# [2] = target: BtcA (Bordetella pertussis); test: SEC-RALS; BtcA (525 ug) on Superdex 200 10/300 with triple detector array; 20 mM Tris pH 8.0, 350 mM NaCl, 20 mM EDTA
# [3] = target: BteA287 (BteA N-terminal domain, residues 1-287) (Bordetella pertussis); test: MST; labeled BteA287 or BteA32-287 (NT-495 BLUE-NHS) mixed with BtcA serially diluted from 200 uM or 100 uM; 20 mM Tris 8, 350 mM NaCl, 20 mM EDTA, 0.05% Tween-20; 20°C; logistic dose-response fit, three measurements averaged
# [4] = target: BteA32-287 (Bordetella pertussis); test: as above
# [5] = target: BteA287 (BteA N-terminal domain, residues 1-287) (Bordetella pertussis); test: MALDI-TOF MS; BtcA-BteA287 complex, linear mode, m/z 20,000 to 150,000; the methods describe EGS cross-linking of the complex before MALDI-TOF analysis
Substance,stoichiometry N [1],stoichiometry N [2],Kd [3] [µM],Kd [4] [µM],stoichiometry N (BtcA per BteA287) [5],stoichiometry N [5]
BtcA (natural protein),2,2,6.6,14,1 and 2,–
"BteA287 (BteA N-terminal domain, residues 1-287) (domain or fragment)",–,–,–,–,–,2
